Patent publication US20220306748A1

How the values were obtained:
[1] = target: human leukocyte antigen-G (HLA-G) recombinant protein (human) (UniProt P17693); assay: SPR kinetics, HLA-G as immobilised ligand; comparator panel at the right
[2] = target: CD3ε (CD3 epsilon) recombinant protein (UniProt P07766); assay: SPR kinetics, CD3ε as immobilised ligand; comparator panel at the right

Anti-human HLA-G Antibody (87G)
Kd [1]: 8.69 nM

Muromonab-CD3 (antibody)
Kd [2]: 7.68 nM
